Laboratory results: article PMC5045412, “Inhibition of pro-HGF activation by SRI31215, a novel approach to block oncogenic HGF/MET signaling” (Oncotarget, 2016)

B1: HAI-1: recombinant human HAI-1, endogenous inhibitor of HGF activation, positive control (protein, UniProt O43278 36-529, looked up)
Kunitz-type protease …: GPPPAPPGLPAGADCLNSFTAGVPGFVLDTNASVSNGATFLESPTVRRGWDCVRACCTTQNCNLALVELQPDRGEDAIAACFLINCLYEQNFVCKFAPREGFINYLTREVYRSYRQLRTQGFGGSGIPKAWAGIDLKVQPQEPLVLKDVENTDWRLLRGDTDVRVERKDPNQVELWGLKEGTYLFQLTVTSSDHPEDTANVTVTVLSTKQTEDYCLASNKVGRCRGSFPRWYYDPTEQICKSFVYGGCLGNKNNYLREEECILACRGVQGGPLRGSSGAQATFPQGPSMERRHPVCSGTCQPTQFRCSNGCCIDSFLECDDTPNCPDASDEAACEKYTSGFDELQRIHFPSDKGHCVDLPDTGLCKESIPRWYYNPFSEHCARFTYGGCYGNKNNFEEEQQCLESCRGISKKDVFGLRREIPIPSTGSVEMAVAVFLVICIVVVVAILGYCFFKNQRKDFHGHHHHPPPTPASSTVSTTEDTEHLVYNHTTRPL

What was measured:
DiFi cells = DiFi cells co-cultured with WI38 fibroblasts, immunoblotting; type: cell-based; details: gefitinib 0.5 μM
Method: Figure 7 Fibroblasts protect DiFi cells from EGFRi in an HGF-dependent manner DiFi cells were treated with gefitinib (0.5 μM) alone or were co-cultured with WI38 fibroblasts (FIB) in the absence or the presence of SRI 31215 (10 μM) or JNJ38877605 (1 μM). The DiFi cell lysates were isolated after 4 or 24 hours as indicated and examined for the expression of pERK and total ERK, pEGFR and total EGFR, cleaved PARP, β-catenin gelsolin and β-actin by immunoblotting.
Immunoblotting was performed using standard procedures. Membranes were blocked with 5% non-fat milk for 1 hour at RT, and incubated with primary antibodies overnight at 4°C. Primary antibodies used were anti-HGF (R&D Systems), anti-MET, anti-p-MET, anti-p-GAB1, anti-p-AKT, anti-p-ERK1/2, anti-vimentin (Cell Signaling Technology), anti-p-STAT3 (Upstate Cell Signaling Solutions), anti-E-cadherin (BD Transduction Laboratories), anti-β-actin (Sigma). Following washing with TBS-T buffer, membranes were incubated with horseradish peroxidase-conjugated secondary antibodies for 1 hour and then washed with TBS-T. Immunoblots were developed using the chemiluminescent detection system with ECL (Amersham). Protein loading was normalized by probing blots for the expression of β-actin.

recombinant human HGFA = molecular target: T1, recombinant human HGFA (Homo sapiens, UniProt Q04756); test: Proteolytic activation of pro-HGF by HGFA (immunoblotting); type: biochemical; details: SRI 31215 10 μM, HAI-1 20 nM, HGFA 1 nM
T1 construct: purchased R&D Systems
T1 sequence (Q04756 408-655 limits assumed): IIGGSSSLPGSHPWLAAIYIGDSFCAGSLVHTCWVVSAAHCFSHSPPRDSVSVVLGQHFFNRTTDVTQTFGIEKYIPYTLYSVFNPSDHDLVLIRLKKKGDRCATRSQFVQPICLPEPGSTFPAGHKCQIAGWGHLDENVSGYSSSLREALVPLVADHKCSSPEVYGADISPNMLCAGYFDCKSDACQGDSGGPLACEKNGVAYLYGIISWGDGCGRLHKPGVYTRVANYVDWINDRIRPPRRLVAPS
T1 sequence (Q04756 373-407 partner limits assumed): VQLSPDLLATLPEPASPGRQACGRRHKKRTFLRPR
Method: Recombinant human HAI-1, recombinant human HGFA, and recombinant human HGF propeptide (pro-HGF) were purchased from R&D Systems. SRI 31215 (10 μM) or recombinant human HAI-1 (20 nM) were mixed with activated recombinant human HGFA pro-peptide (1nM) in TNC buffer (pH 8.0) and incubated at room temperature for 30 minutes. Recombinant human pro-HGF (40 ng) was added and incubated at 37°C for 1 hour. The reaction was stopped by SDS-PAGE gel sample buffer and samples were boiled and separated by 12% PAGE. Proteins were transferred onto nitrocellulose membrane, blocked with 5% milk and immunoblotted using antibodies that recognize pro-HGF as well as α and β chains of activated HGF.

RKO cells = test: Clonogenic growth and viability of HGF-producing RKO cells with EGFR inhibitors; type: cell-based; details: RKO cells, SRI 31215 10 μM, JNJ 38877605 1 μM, HAI-1 20 nM
Method: Figure 5 Inhibitors of HGF/MET signaling prevent the innate and acquired resistance to cetuximab A. and B. RKO cells were treated with cetuximab (50 μg/ml) (A) of gefitinib (B) alone, or in combination with SRI 31215 (10 μM), JNJ 38877605 (1 μM) or recombinant HAI-1 (20 nM) as indicated and clonogenic growth was monitored as described in Materials and Methods. C. and D. Caco2 cells were treated with cetuximab or gefitinib alone or in the presence of CM from fibroblasts and SRI 31215 (10 μM) or JNJ 38877605 (1 μM) as indicated. #: p<0.05, compared to control (CTRL); NS: not significant.
Cell titer-glo luminescent cell viability assay kit was purchased from Promega. […] For clonogenic assay, cells were seeded in 6-well plates at a density of 400 cells per well, serum starved overnight, and treated as indicated. After colony formation (8-12 days), cells were stained with crystal violet and the number of colonies was determined using ImageQuantTL (GE Health Care Life Sciences).
Supplementary Figure S3: Inhibition of HGF/MET signaling sensitizes HGF-producing RKO colon cancer cells to gefitinib. A. RKO cells (HGF+) and B. HT29 (HGF-) cells were treated with gefitinib (5 μM) in the absence or the presence of SRI 31215 (10 μM) or JNJ 38877605 (1 μM) as indicated and viability was determined 24 and 72 hours after treatment. # indicates statistical significance compared to samples treated with gefitinib alone as determined by Students’ t-test (p<0.05).
(also on this page, place not known: www.impactjournals.com/oncotarget/ Oncotarget, Materials 2016 Supplementary (HGF +) (HGF -)) […]

Row | Molecule | levels of β-catenin (DiFi cells) | HGFA-induced cleavage of pro-HGF into alpha and beta chains (recombinant human HGFA) | clonogenic growth, agent alone (RKO cells) | clonogenic growth, combination with cetuximab (RKO cells; cetuximab 50 μg/ml)
1 | COc1cc2ncnc(Nc3ccc(F)c(Cl)c3)c2cc1OCCCN1CCOCC1 [Gefitinib] | reduced | – | – | –
2 | B1 | – | inhibited | did not impact | significant decrease
